Source: article PMC6553756 (PLoS ONE, 2019)

Columns and labels:
recombinant mouse PrP = target: T1, recombinant mouse PrP (Mus musculus, UniProt P04925); experiment: ELISA
T1 construct: also called rMoPrP

[1] = target: T2, cellular prion protein (PrP^C) expressed in the brain of mock-infected mice (Mus musculus, mouse strain not shown, UniProt P04925); experiment: immunostaining of cells or tissue; conditions: one partner purified
T2 construct: source: endogenous, frozen brain sections of mock-infected mice
T2 sequence (P04925 23-230): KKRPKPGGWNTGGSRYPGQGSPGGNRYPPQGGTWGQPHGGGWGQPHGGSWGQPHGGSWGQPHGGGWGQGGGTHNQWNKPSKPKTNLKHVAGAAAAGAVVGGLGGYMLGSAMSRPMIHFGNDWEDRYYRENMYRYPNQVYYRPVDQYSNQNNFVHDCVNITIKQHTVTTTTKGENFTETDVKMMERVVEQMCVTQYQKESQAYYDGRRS

[2] = target: abnormal isoform prion protein (PrP^Sc) in the brain of Chandler prion-infected mice (Mus musculus, brain, Chandler prion …, UniProt P04925); experiment: immunostaining of cells or tissue; conditions: one partner purified
Sequence of abnormal isoform prion protein (PrP^Sc) in the brain of Chandler prion-infected mice (P04925 23-230): as above

T1 sequence (P04925 23-230): as above

| Binder | binding result (recombinant mouse PrP; both partners purified) | binding result [1] | binding result [2] | binding result (recombinant mouse PrP; one partner purified) |
| --- | --- | --- | --- | --- |
| authentic anti-PrP monoclonal antibody 44B1 (IgG-44B1) (antibody, V domains shown, also called mAb 44B1; source: hybridoma, purified IgG; copies: 2 + 2) VH: DVKLVESGEGLVKPGGSLKLSCAASGITFSRYAMSWVRQTPEKRLEWVAYISSGGDYINYADTVKGRFTISRDNARNTLYLQMSSLKSEDTAMYYCTRVTPYWYFDVWGTGTTVTVSS VL: DIVLTQSPASLGVSLGQRATISCRASESVDSYGNSFMHWYQQKPGQPPKVLIYRASNRESGIPARFSGSGSRTDFTLTINPVEADDVATYYCQQSNEDPYTFGGGTKLEIK | binds | binds | binds | – |
| recombinant Fab of mAb 44B1 (rFab-44B1) (Fab, V domains shown, source: HEK293T, transfected (IRES plasmid), culture supernatant) VH: DVKLVESGEGLVKPGGSLKLSCAASGITFSRYAMSWVRQTPEKRLEWVAYISSGGDYINYADTVKGRFTISRDNARNTLYLQMSSLKSEDTAMYYCTRVTPYWYFDVWGTGTTVTVSS VL: DIVLTQSPASLGVSLGQRATISCRASESVDSYGNSFMHWYQQKPGQPPKVLIYRASNRESGIPARFSGSGSRTDFTLTINPVEADDVATYYCQQSNEDPYTFGGGTKLEIK | – | – | – | binds |
